From IntAct's records for PubMed 17158164

B1: TATA-box-binding protein (Homo sapiens), P20226 (parent)
chain: MDQNNSLPPYAQGLASPQGAMTPGIPIFSPMMPYGTGLTPQPIQNTNSLSILEEQQRQQQQQQQQQQQQQQQQQQQQQQQQQQQQQQQQQQQQQQAVAAAAVQQSTSQQATQGTSGQAPQLFHSQTLTTAPLPGTTPLYPSPMTPMTPITPATPASESSGIVPQLQNIVSTVNLGCKLDLKTIALRARNAEYNPKRFAAVIMRIREPRTTALIFSSGKMVCTGAKSEEQSRLAARKYARVVQKLGFPAKFLDFKIQNMVGSCDVKFPIRLEGLVLTHQQFSSYEPELFPGLIYRMIKPRIVLLIFVSGKVVLTGAKVRAEIYEAFENIYPILKGFRKTT
partner: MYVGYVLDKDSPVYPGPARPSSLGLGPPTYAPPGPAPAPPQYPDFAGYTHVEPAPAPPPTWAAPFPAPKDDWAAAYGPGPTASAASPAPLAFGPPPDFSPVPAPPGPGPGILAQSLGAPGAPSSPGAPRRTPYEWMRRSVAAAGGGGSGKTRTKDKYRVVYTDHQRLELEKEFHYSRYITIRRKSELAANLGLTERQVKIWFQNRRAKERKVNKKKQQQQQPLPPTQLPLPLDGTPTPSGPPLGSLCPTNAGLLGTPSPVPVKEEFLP

Variants of: B1
Settings: with cdx1_mouse Cdx1, P18111

Which “effect of a mutation on the interaction” value does the source give for MDQNNSLPPYAQGLASPQGAMTPGIPIFSPMMPYGTGLTPQPIQNTNSLSILEEQQRQQQQQQQQQQQQQQQQQQQQQQQQQQQQQQQQQQQQQQAVAAAAVQQSTSQQATQGTSGQAPQLFHSQTLTTAPLPGTTPLYPSPMTPMTPITPATPASESSGIVPQLQNIVSTVNLGCKLDLKTIALRARNAEYNPKRFAAVIMRIREPRTTALIFSSGKMVCTGAKSEEQSRLAARKYARVVQKLGFPAKFLDFKIQNMVGSCDVKFPIRLEGLVLTHQQFSSYEPELFPGLFYRMIKPRITLVIFVSGKVVLTGAKVRAEIYEAFENIYPILKGFRKTT [I292F;V301T;L303V] here?
The value was “with no effect”.
